In patent US20170369542A1 (Pieris, published 2017):
Substitutions are numbered along the chain they refer to. Where no end group is shown, it is not given here.

T1: lipocalin mutein of SEQ ID NO: 14, linked to PEG40 (branched 40k PEG-maleimide on the free Cys at position 87)
T1 construct: hNGAL mutein with Ser 87 back-mutated to Cys and PEGylated there
T1 chain: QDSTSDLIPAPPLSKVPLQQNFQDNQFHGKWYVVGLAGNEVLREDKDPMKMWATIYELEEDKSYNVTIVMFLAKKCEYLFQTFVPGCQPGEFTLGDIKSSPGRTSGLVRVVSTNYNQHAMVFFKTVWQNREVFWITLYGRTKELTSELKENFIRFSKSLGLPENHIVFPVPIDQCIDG

T2: cynomolgus Hepcidin-25 (cynomolgus, UniProt A7XEI3 60-84, not fully specified)
T2 construct: mature
T2 peptide: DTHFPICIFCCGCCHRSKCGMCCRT

T3: C-terminal biotinylated human Hepcidin-25 (human, not fully specified; biotinylated via a Lysine residue coupled to the C-terminus via a Mini-PEG linker)
T3 construct: Bought from Bachem AG; Captured on plates via Neutravidin; also called C-terminal biotinylated hepcidin; C-terminal biotinylated hHepcidin
T3 peptide: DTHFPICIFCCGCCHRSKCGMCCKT

B1: synthetic non-modified human Hepcidin-25 (peptide)
peptide: DTHFPICIFCCGCCHRSKCGMCCKT
modifications: not fully specified (bridges); ends and bridges not checked
notes: also called hHepcidin-25; non-biotinylated human hepcidin
B2: lipocalin mutein of SEQ ID NO: 8 (designed binder)
chain: T1 chain with E59K, F71P, K74E, C87S, D96G, S100G, T125V, I135V
notes: also called Lcn2 mutein
B3: lipocalin mutein of SEQ ID NO: 13, linked to PEG40 (designed binder)
chain: T1 chain with E59K, F71P, K74E, D96G, S100G, T125V, I135V
modifications: branched 40k PEG-maleimide on the free Cys at position 87
notes: hNGAL mutein with Ser 87 back-mutated to Cys and PEGylated there
B4: pegylated mutein of SEQ ID NO: 1 (designed binder)
chain: T1 chain
modifications: branched 40k PEG-maleimide on Cys 87
B5: pegylated mutein of SEQ ID NO: 8 (designed binder)
chain: T1 chain with E59K, F71P, K74E, D96G, S100G, T125V, I135V
modifications: branched 40k PEG-maleimide on Cys 87

Experiments:
[1] = molecular target: murine ferroportin (FPN) carboxy-terminally fused with green fluorescent protein (GFP) (murine), Q9JHI9; test: cell-based or functional assay
[2] = molecular target: B3; test: competition ELISA, free human hepcidin against captured biotinylated hepcidin
[3] = molecular target: T1, lipocalin mutein of SEQ ID NO: 14, …; test: as above
[4] = molecular target: B1; test: cell-based or functional assay
cynomolgus Hepcidin-25 [5] = molecular target: T2, cynomolgus Hepcidin-25; test: direct ELISA on cynomolgus hep-25, mutein titrated
Experimental: (§1) A “direct” ELISA was performed to verify the binding affinity and specificity of the selected Lcn2 muteins. Therefore, a constant concentration of 1 μg/ml C-terminal biotinylated hepcidin (Bachem AG, CH) was captured on the surface of a polystyrol plate (Greiner, GE) via Neutravidin (Thermo Scientific, 5 μg/ml). Two step dilution series of purified Lcn2 muteins were incubated with the captured hepcidin for 1 h at room temperature and detected either via the Strep-tag II using a rabbit anti-strep-tag II polyconal antibody (GenScript, USA) or by using a scaffold-specific polyclonal rabbit antibody. In both cases an anti rabbit IgG-HRP conjugate (Abcam, UK) was employed as secondary detection antibody.
(§2) The absorption ΔA at […] was measured in an ELISA reader (Tecan, GE) and the data were fitted with Graphpad Prism software (Statcom, USA).

[6] = molecular target: B1; test: competition ELISA: non-biotinylated human hepcidin-25 titrated against a constant concentration of mutein; free mutein detected on plate-captured biotinylated human hepcidin
Experimental: The binding affinity of the Lcn2 muteins to non-modified hepcidin-25 in solution was evaluated in a competition ELISA approach. Therefore, a constant concentration of 1 μg/ml C-terminal biotinylated human hepcidin (Bachem AG, CH) was captured on the surface of a polystyrol plate (Greiner, GE) via Neutravidin (Thermo Scientific, 5 μg/ml, GE). In parallel a two step dilution series of non-biotinylated human hepcidin starting from 1 μM was incubated with a constant concentration of hepcidin-specific mutein for 1 h at room temperature in a non-protein binding 96 well polypropylene plate (Nunc, GE). The constant concentration of lipocalin muteins corresponds to the EC₅₀ of the respective muteins as determined in a direct ELISA as described above in this example. In the following the mixture of non-modified human hepcidin and lipocalin mutein was transferred onto the hepcidin-captured Neutravidin plate. The C-terminal biotinylated hepcidin was allowed to compete with the non-modified hepcidin for Anticalin binding for 20 min. at room temperature. During these 20 min, free lipcocalin mutein was bound to the captured hepcidin and detected via a rabbit anti-strep-tag II polyconal antibody (GenScript, USA). A goat anti-rabbit IgG-HRP conjugate (Abcam, UK) was employed as secondary detection antibody. Parallel to the competition assay, anticalin binding was determined on the same plate in a “direct” ELISA, in order to obtain a standard curve linking the RFU values to anticalin concentration. This curve was then used to standardize competition data to the level of anticalins bounds to the plate and fitted with Graphpad software. IC₅₀ values correspond to the half-maximum amount of lipocalin mutein bound to the plate.

[7] = molecular target: B1; test: SPR (Biacore T100), mutein immobilized on CM5 chip, hepcidin-25 in solution, 1:1 model
Experimental: (§3) Lipocalin muteins were immobilized to a CM5 sensor chip using standard amine chemistry: The surface of the chip was activated using EDC and NHS. Subsequently, 20 μg/mL lipocalin mutein solutions in 10 mM sodium acetate pH 4.5 (60 μg/mL in 10 mM sodium acetate pH 4.0 for pegylated lipocalin mutein) were applied at a flow rate of 5 μL/min until a surface density of 500-700 resonance units (RU) for non-modified lipocalin muteins and of approximately 1600 RU for pegylated lipocalin with the sequence of SEQ ID NO: 13 was achieved. Residual activated groups were saturated with ethanolamine. The reference channels were treated with EDC/NHS following ethanolamine (blank immobilization). All reagents and materials were purchased from GE Healthcare.
(§4) Serial dilutions of human and cynomolgus Hepcidin-25 in running buffer (HBS-EP+, GE Healthcare, BR-1006-68) were applied to the prepared surface. The following parameters were used for the binding assay: contact time 60 s, dissociation time 180-360 s, flow rate 30 μL/min. All measurements were performed on a Biacore T100 instrument (GE Healthcare) at 25° C.
(§5) Data were evaluated with Biacore T100 Evaluation software (V 2.0.1). Double referencing was used. The 1:1 Binding model (Langmuir) was used to fit the raw data.

cynomolgus Hepcidin-25 [8] = molecular target: T2, cynomolgus Hepcidin-25; test: as above
Experimental: as §3, §4, §5

[9] = molecular target: T3, C-terminal biotinylated human …; test: direct ELISA, biotinylated hepcidin captured via Neutravidin, mutein titrated
Experimental: as §1, §2

cynomolgus Hepcidin-25 [10] = molecular target: T2, cynomolgus Hepcidin-25; test: SPR, Biacore T100, mutein amine-coupled to CM5 chip, hepcidin as analyte, 25 C
Experimental: as §3, §4, §5

[11] = molecular target: B1; test: SPR, Biacore T100, pegylated mutein amine-coupled to CM5 chip, hepcidin as analyte, 1:1 model, 25 C
Experimental: as §3, §4, §5

[12] = molecular target: T3, C-terminal biotinylated human …; test: direct ELISA, biotinylated hepcidin captured via Neutravidin
Experimental: as §1, §2

Sequence of murine ferroportin (FPN) carboxy-terminally fused with green fluorescent protein (GFP) (murine), Q9JHI9 (Q9JHI9 whole entry, the tested form may be a part): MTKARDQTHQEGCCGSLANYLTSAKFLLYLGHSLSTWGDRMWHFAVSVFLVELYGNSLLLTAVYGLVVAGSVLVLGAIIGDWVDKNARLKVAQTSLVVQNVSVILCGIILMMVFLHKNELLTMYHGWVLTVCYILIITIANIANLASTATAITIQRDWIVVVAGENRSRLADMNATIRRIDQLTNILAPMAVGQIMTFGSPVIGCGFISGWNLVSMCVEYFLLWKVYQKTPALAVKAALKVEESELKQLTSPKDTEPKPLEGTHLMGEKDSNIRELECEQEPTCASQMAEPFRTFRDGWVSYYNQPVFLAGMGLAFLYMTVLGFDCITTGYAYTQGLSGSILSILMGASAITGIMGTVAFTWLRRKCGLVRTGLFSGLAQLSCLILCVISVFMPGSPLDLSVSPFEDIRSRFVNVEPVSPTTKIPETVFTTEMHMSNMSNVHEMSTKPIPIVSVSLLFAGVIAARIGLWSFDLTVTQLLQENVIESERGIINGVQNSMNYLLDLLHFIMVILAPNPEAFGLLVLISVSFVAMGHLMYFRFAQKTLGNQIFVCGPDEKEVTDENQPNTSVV

Binder | IC50 of neutralization of hepcidin-induced (40 nM) internalization and degradation of FPN-GFP in T-REx-293 cells, GFP fluorescence by flow cytometry [4] | IC50 [6] | Kd [7] | koff [7] | kon [7] | Kd [9] | fold higher affinity compared to the human target (cynomolgus Hepcidin-25 [10]) | factor by which pegylation reduced the binding affinity (against the non-pegylated mutein) [12] | further results
B1 | – | – | – | – | – | – | – | – | EC80 of hepcidin-mediated degradation of the Fpn-GFP fusion protein (GFP fluorescence by flow cytometry) [1]: 40 nM; factor by which pegylation reduced the binding affinity (against the non-pegylated mutein) [2]: 2 fold; factor by which pegylation reduced the binding affinity (against the non-pegylated mutein) [3]: 4 fold
B2 | 31 nM | 0.1 nM | 0.123 nM | 0.000178 s⁻¹ | 1.45e+06 M⁻¹ s⁻¹ | 0.66 nM | ~2 fold | – | Kd (cynomolgus Hepcidin-25 [5]): 0.67 nM; Kd (cynomolgus Hepcidin-25 [8]): 0.066 nM; koff (cynomolgus Hepcidin-25 [8]): 0.000245 s⁻¹; kon (cynomolgus Hepcidin-25 [8]): 3.74e+06 M⁻¹ s⁻¹
B3 | 34 nM | 0.24 nM | 0.041 nM | 0.000123 s⁻¹ | 2.98e+06 M⁻¹ s⁻¹ | 3.49 nM | ~2 fold | – | Kd [11]: 0.04 nM
B4 | – | – | – | – | – | – | – | 8 fold | –
B5 | – | – | – | – | – | – | – | 5 fold | –
